Test results published in the supplement of paper PMC9112550, “Optimization of the antimicrobial peptide Bac7 by deep mutational scanning” (BMC Biology, 2022).

What follows are sequences tested on Escherichia coli TOP10 (assay: shrunken log2 fold change of peptide-encoding DNA abundance (4.5 h post-induction vs induction); higher = less antimicrobial activity (less host growth inhibition)). Conditions: time post-induction: 4.5 h; library: site-saturation at positions 5, 18, 19, 20.
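Further: peptides expressed intracellularly from a pBAD plasmid library in pooled LB shake-flask culture, induced with 0.3% L-arabinose, DNA abundance read by NGS, three biological replicates, DESeq2 with apeglm shrinkage.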

| Sequence | shrunken log2 fold change |
| --- | --- |
| RRIRNRPPRLPRPRPRPPQSPRP | 0.331 |
| RRIRNRPPRLPRPRPRPPQVPRP | 0.0214 |
| RRIRNRPPRLPRPRPRPPSRPRP | 0.228 |
| RRIRNRPPRLPRPRPRPPSYPRP | -0.14 |
| RRIRNRPPRLPRPRPRPPVRPRP | 0.489 |
| RRIRNRPPRLPRPRPRPPYIPRP | -0.335 |
| RRIRNRPPRLPRPRPRPQAVPRP | -0.0343 |
| RRIRNRPPRLPRPRPRPQCTPRP | -0.123 |
| RRIRNRPPRLPRPRPRPQDTPRP | -0.0984 |
| RRIRNRPPRLPRPRPRPQEFPRP | -0.0043 |
| RRIRNRPPRLPRPRPRPQEGPRP | 0.0303 |
| RRIRNRPPRLPRPRPRPQFKPRP | -0.3 |
| RRIRNRPPRLPRPRPRPQFPPRP | -0.148 |
| RRIRNRPPRLPRPRPRPQGPPRP | 0.0355 |
| RRIRNRPPRLPRPRPRPQHRPRP | -0.215 |
| RRIRNRPPRLPRPRPRPQHYPRP | -0.319 |
| RRIRNRPPRLPRPRPRPQKHPRP | -0.227 |
| RRIRNRPPRLPRPRPRPQLPPRP | -0.352 |
| RRIRNRPPRLPRPRPRPQMDPRP | 0.0304 |
| RRIRNRPPRLPRPRPRPQMMPRP | -0.227 |
| RRIRNRPPRLPRPRPRPQNEPRP | -0.331 |
| RRIRNRPPRLPRPRPRPQNSPRP | -0.38 |

| Sequence | shrunken log2 fold change |
| --- | --- |
| RRIRNRPPRLPRPRPRPQPFPRP | -0.0278 |
| RRIRNRPPRLPRPRPRPQTRPRP | 0.0246 |
| RRIRNRPPRLPRPRPRPQVGPRP | 0.00312 |
| RRIRNRPPRLPRPRPRPQVHPRP | -0.161 |
| RRIRNRPPRLPRPRPRPQVIPRP | -0.000921 |
| RRIRNRPPRLPRPRPRPQWGPRP | -0.0138 |
| RRIRNRPPRLPRPRPRPRCSPRP | 0.019 |
| RRIRNRPPRLPRPRPRPRCTPRP | -0.263 |
| RRIRNRPPRLPRPRPRPREHPRP | 0.0287 |
| RRIRNRPPRLPRPRPRPRFQPRP | 0.0932 |
| RRIRNRPPRLPRPRPRPRGFPRP | 0.443 |
| RRIRNRPPRLPRPRPRPRHGPRP | -0.0314 |
| RRIRNRPPRLPRPRPRPRIHPRP | -0.184 |
| RRIRNRPPRLPRPRPRPRIMPRP | -0.337 |
| RRIRNRPPRLPRPRPRPRIRPRP | -0.0657 |
| RRIRNRPPRLPRPRPRPRLCPRP | 0.121 |
| RRIRNRPPRLPRPRPRPRLHPRP | 0.0921 |
| RRIRNRPPRLPRPRPRPRLIPRP | 0.0319 |
| RRIRNRPPRLPRPRPRPRLMPRP | -0.142 |
| RRIRNRPPRLPRPRPRPRLYPRP | -0.142 |
| RRIRNRPPRLPRPRPRPRPKPRP | 0.719 |
| RRIRNRPPRLPRPRPRPRQRPRP | 0.215 |

| Sequence | shrunken log2 fold change |
| --- | --- |
| RRIRNRPPRLPRPRPRPRRGPRP | 0.78 |
| RRIRNRPPRLPRPRPRPRRTPRP | 0.135 |
| RRIRNRPPRLPRPRPRPRSIPRP | -0.288 |
| RRIRNRPPRLPRPRPRPRTCPRP | -0.257 |
| RRIRNRPPRLPRPRPRPRVLPRP | 0.0234 |
| RRIRNRPPRLPRPRPRPRWCPRP | 0.169 |
| RRIRNRPPRLPRPRPRPSAKPRP | -0.0395 |
| RRIRNRPPRLPRPRPRPSASPRP | -0.2 |
| RRIRNRPPRLPRPRPRPSCHPRP | 1.83 |
| RRIRNRPPRLPRPRPRPSCRPRP | 0.0168 |
| RRIRNRPPRLPRPRPRPSDAPRP | 0.0594 |
| RRIRNRPPRLPRPRPRPSDPPRP | -0.192 |
| RRIRNRPPRLPRPRPRPSDTPRP | -0.00711 |
| RRIRNRPPRLPRPRPRPSEFPRP | -0.109 |
| RRIRNRPPRLPRPRPRPSEGPRP | -0.0276 |
| RRIRNRPPRLPRPRPRPSEHPRP | -0.159 |
| RRIRNRPPRLPRPRPRPSGEPRP | 0.155 |
| RRIRNRPPRLPRPRPRPSGQPRP | -0.188 |
| RRIRNRPPRLPRPRPRPSHFPRP | -0.647 |
| RRIRNRPPRLPRPRPRPSHPPRP | 0.186 |
| RRIRNRPPRLPRPRPRPSHTPRP | -0.412 |
| RRIRNRPPRLPRPRPRPSIPPRP | -0.134 |

| Sequence | shrunken log2 fold change |
| --- | --- |
| RRIRNRPPRLPRPRPRPSKCPRP | -0.126 |
| RRIRNRPPRLPRPRPRPSLHPRP | -0.621 |
| RRIRNRPPRLPRPRPRPSLWPRP | 0.159 |
| RRIRNRPPRLPRPRPRPSLYPRP | -0.0524 |
| RRIRNRPPRLPRPRPRPSNGPRP | -0.12 |
| RRIRNRPPRLPRPRPRPSPEPRP | -0.123 |
| RRIRNRPPRLPRPRPRPSPFPRP | -0.287 |
| RRIRNRPPRLPRPRPRPSRSPRP | -0.076 |
| RRIRNRPPRLPRPRPRPSSTPRP | -0.201 |
| RRIRNRPPRLPRPRPRPSTKPRP | -0.0203 |
| RRIRNRPPRLPRPRPRPSTNPRP | -0.337 |
| RRIRNRPPRLPRPRPRPSVDPRP | -0.0699 |
| RRIRNRPPRLPRPRPRPSWQPRP | -0.0148 |
| RRIRNRPPRLPRPRPRPSYAPRP | -0.387 |
| RRIRNRPPRLPRPRPRPSYQPRP | -0.75 |
| RRIRNRPPRLPRPRPRPSYRPRP | -0.102 |
| RRIRNRPPRLPRPRPRPTDHPRP | -0.383 |
| RRIRNRPPRLPRPRPRPTDIPRP | -0.296 |
| RRIRNRPPRLPRPRPRPTFAPRP | 0.343 |
| RRIRNRPPRLPRPRPRPTGMPRP | 0.236 |
| RRIRNRPPRLPRPRPRPTHTPRP | -0.191 |
| RRIRNRPPRLPRPRPRPTIAPRP | -0.277 |

| Sequence | shrunken log2 fold change |
| --- | --- |
| RRIRNRPPRLPRPRPRPTKEPRP | -0.0307 |
| RRIRNRPPRLPRPRPRPTKIPRP | -0.245 |
| RRIRNRPPRLPRPRPRPTKVPRP | -0.153 |
| RRIRNRPPRLPRPRPRPTLMPRP | 0.0843 |
| RRIRNRPPRLPRPRPRPTMYPRP | -0.486 |
| RRIRNRPPRLPRPRPRPTNRPRP | -0.00917 |
| RRIRNRPPRLPRPRPRPTPQPRP | 0.232 |
| RRIRNRPPRLPRPRPRPTRFPRP | 0.3 |
| RRIRNRPPRLPRPRPRPTTYPRP | -0.228 |
| RRIRNRPPRLPRPRPRPTVPPRP | -0.233 |
| RRIRNRPPRLPRPRPRPTWRPRP | 0.421 |
| RRIRNRPPRLPRPRPRPTYAPRP | 0.027 |
| RRIRNRPPRLPRPRPRPTYGPRP | -0.0506 |
| RRIRNRPPRLPRPRPRPVAIPRP | -0.507 |
| RRIRNRPPRLPRPRPRPVCGPRP | 0.0972 |
| RRIRNRPPRLPRPRPRPVCMPRP | -0.0349 |
| RRIRNRPPRLPRPRPRPVKEPRP | -0.0182 |
| RRIRNRPPRLPRPRPRPVMCPRP | -0.0207 |
| RRIRNRPPRLPRPRPRPVMMPRP | -0.198 |
| RRIRNRPPRLPRPRPRPVNVPRP | -0.304 |
| RRIRNRPPRLPRPRPRPVPCPRP | -0.237 |
